Assay results: patent US6967100B2, “Pancreatic islet cell growth factors” (The Walter and Eliza Hall Institute of Medical Research, priority 2000, dated 2005)

B1: BMP 4/7: BMP 4 and BMP 7 heterodimer, recombinant mouse, CHO cell conditioned medium (protein, UniProt P21275 293-408; P23359 292-430, looked up)
Bone morphogenetic protein 4: SPKHHPQRSRKKNKNCRRHSLYVDFSDVGWNDWIVAPPGYQAFYCHGDCPFPLADHLNSTNHAIVQTLVNSVNSSIPKACCVPTELSAISMLYLDEYDKVVLKNYQEMVVEGCGCR
Bone morphogenetic protein 7: STGGKQRSQNRSKTPKNQEALRMASVAENSSSDQRQACKKHELYVSFRDLGWQDWIIAPEGYAAYYCEGECAFPLNSYMNATNHAIVQTLVHFINPDTVPKPCCAPTQLNAISVLYFDDSSNVILKKYRNMVVRACGCH
modifications: heterodimer
notes: BMP 4 and BMP 7 heterodimer, recombinant mouse, CHO cell conditioned medium
B2: BMP 7/7: BMP 7 homodimer, epitope-tagged recombinant mouse BMP in CHO cell conditioned medium (protein, UniProt P23359 292-430, looked up)
Bone morphogenetic protein 7: B1 Bone morphogenetic protein 7
modifications: epitope tag
B3: BMP 4/4: BMP 4 homodimer, epitope-tagged recombinant mouse BMP in CHO cell conditioned medium (protein, UniProt P21275 293-408, looked up)
Bone morphogenetic protein 4: B1 Bone morphogenetic protein 4
modifications: epitope tag
B4: BMP 4/6: BMP 4 and BMP 6 heterodimer, recombinant mouse, CHO cell conditioned medium (protein, UniProt P21275 293-408; P20722 372-510, looked up)
Bone morphogenetic protein 4: B1 Bone morphogenetic protein 4
Bone morphogenetic protein 6: SASSRRRQQSRNRSTQSQDVSRGSGSSDYNGSELKTACKKHELYVSFQDLGWQDWIIAPKGYAANYCDGECSFPLNAHMNATNHAIVQTLVHLMNPEYVPKPCCAPTKLNAISVLYFDDNSNVILKKYRNMVVRACGCH
modifications: heterodimer
notes: BMP 4 and BMP 6 heterodimer, recombinant mouse, CHO cell conditioned medium
B5: betacellulin: candidate growth factor (protein, UniProt P35070 32-111, looked up)
Betacellulin: DGNSTRSPETNGLLCGDPEENCAATTTQSKRKGHFSRCPKQYKHYCIKGRCRFVVAEQTPSCVCDEGYIGARCERVDLFY
B6: KGF: candidate growth factor (protein, UniProt P21781 32-194, looked up)
Fibroblast growth factor 7: CNDMTPEQMATNVNCSSPERHTRSYDYMEGGDIRVRRLFCRTQWYLRIDKRGKVKGTQEMKNNYNIMEIRTVAVGIVAIKGVESEFYLAMNKEGKLYAKKECNEDCNFKELILENHYNTYASAKWTHNGGEMFVALNQKGIPVRGKKTKKEQKTAHFLPMAIT
B7: BMP 6/6: recombinant mouse BMP 6, myc epitope tagged, CHO cell conditioned medium; called BMP 6 in b118 (protein, UniProt P20722 372-510, looked up)
Bone morphogenetic protein 6: B4 Bone morphogenetic protein 6
modifications: myc epitope tag
notes: called BMP 6

Each molecule was assayed on C2C12 myoblasts (assay: C2C12 cell BMP bioassay (transformation of myoblasts into alkaline phosphatase-containing osteoblasts)). Conditions: FIG. 3; heterodimer versus homodimer.
Format: cell-based
Protocol: BMP activity was measured in the C2C12 cell bioassay, in which BMPs transform C2C12 myoblasts into alkaline phosphatase-containing osteoblasts (Katagiri et al., 1994). Briefly, CHO cells were plated at a density of around 5×10^6 per 75 cm^2 flask in serum-free HYBRIDOMA medium (Gibco BRL Life Technology) (SFHM) containing 10% v/v FCS. Once the cells had reached confluency, the medium was removed, the cells washed twice with SFHM and 10 ml of SFHM then added to each flask. The cells were cultured for four days and the conditioned medium collected, filtered through a 2 micron filter and stored at 4° C.
2×10^3 C2C12 cells were plated into each well of a 96-well tissue culture plate in DME/10% v/v FCS. Twenty-four hours later, the medium was removed and replaced with 100 μl SFHM/1% v/v FCS. 50 μl of each conditioned medium was added in duplicate to the top row of the 96-well plate and the volume of these wells then made up to 200 μl. Using a multi-channel pipette, 100 μl from each well was then serially transferred to subsequent rows thus diluting the conditioned medium 2-fold with each transfer. After incubation for five days, the media were discarded and the cells washed with normal saline. Cells were lysed for 10 mins at room temperature (RT) in 100 μl 0.5% v/v TritonX-100 and 100 mM diethanolamine (pH 9.5) in normal saline. To each well was then added an aqueous solution containing 10 mM diethanolamine, 1 mg/ml p-nitrophenyl phosphate (PNPP) and 0.5 mM MgCl2. The yellow reaction product catalyzed by alkaline phosphatase was allowed to develop for 10-60 mins before reading absorption at 415 nm.
B1 was tested, and the “relative BMP bioactivity” value was “more active than 4/4 homodomers”.

Same assay, conditions: conditioned medium of stably transfected CHO cells, compared to medium of untransfected CHO cells
For B2, the “BMP activity of conditioned medium (alkaline phosphatase activity of C2C12 cells)” value (“BMP activity of conditioned medium” below) was “significant activity”. B3 was tested, and the “BMP activity of conditioned medium” value was “significant activity”. In the case of B4, the “BMP activity of conditioned medium” value is reported as “significant activity”. For B1, the “BMP activity of conditioned medium” value was “significant activity”.

What follows are molecules tested on 13.5 dpc fetal mouse pancreas cells (assay: Colony formation of 13.5 dpc fetal mouse pancreas cells cultured with BMPs and laminin-1). Conditions: 13.5 dpc fetal pancreas cells.
Format: cell-based
Protocol: Dissociated fetal pancreas cells were prepared from 13.5 dpc CBA mice. Pregnant mice at 13.5 dpc were killed by cervical dislocation and fetuses collected into ice cold sterile mouse tonicity phosphate-buffered saline (MTPBS). Fetal pancreata were harvested under an Olympus dissection microscope into RPMI 1640 medium and dissociated in a shaking water bath at 37° C. for 11 mins in Ca^2+/Mg^2+-free PBS containing 0.5% v/v trypsin/EDTA as described for testis by Bucci et al. (1986). After dissociation, trypsin was inactivated by addition of 8% w/v bovine serum albumin (BSA, fraction V) (Sigma, St. Louis, USA). The tissue was aspirated several times in a pipette, passed through a 27 gauge needle to make a single cell suspension and then rinsed in 10 μg/ml DNAse I (Promega, Madison, USA) in RPMI 1640 for 10 mins to reduce cellular aggregates. Cell suspensions were filtered through a 70-100 μm steel mesh, centrifuged at 400×g for 5 mins and the supernatant discarded. The cell pellet was resuspended in HYBRIDOMA medium and stored on ice. Cells were counted under a haemocytometer and viability was determined by exclusion of 0.2% v/v trypan blue dye. Pancreatic cells were plated in 8 chamber slides (Nunc) at 1.5×10^4 cells/well in 0.3 ml HYBRIDOMA medium 500 UI/ml penicillin and 500 μg/ml streptomycin. The cells were cultured in 10% v/v CO2, 90% v/v air at 37° C. with 100% humidity for four days in the presence of factors such as laminin-1 and BMPs.
After four days in culture, cells were washed twice with warm MT-PBS and fixed with a 4% v/v paraformaldehye for 10 mins. In some cases, 100 μM BrdU was added to label proliferating cells 12 hours before fixation and detection with monoclonal antibody to BrdU and FITC-labelled rabbit anti-mouse immunoglobulin. For immunoperoxidase staining, endogenous peroxidase was blocked by 3% v/v H2O2 in methanol for 8 mins and, prior to addition of primary antibody, non-specific protein binding was blocked by incubation for at least 30 mins in MTPBS containing 2% w/v BSA or 2% v/v normal rabbit serum. Controls were performed by replacing primary antibody with pre-immune serum from the appropriate species. Tissue sections or cells were incubated with primary antibodies for 90 min RT, followed by three thorough washes with MTPBS. For immunoperoxidase staining, horseradish peroxidase-conjugated rabbit anti-guinea pig, swine anti-rabbit or rabbit anti-mouse immunoglobulins (Dako) diluted 1:80 were added for 30 mins at RT followed by thorough washes; colour was developed with 3,3′-diaminobenzidine/H2O2 for 4-8 mins and slides counterstained with haematoxylin.
A pancreatic cell colony was defined as a spherical collection of 20 cells. Colonies were counted under a×10 power objective with an eyepiece graticule.
B5 was tested, and the “proliferation or colony formation, candidate growth factors individually” value was “unable to promote proliferation or colony formation”. B6 was tested, and the “proliferation or colony formation, candidate growth factors individually” value was “unable to promote proliferation or colony formation”.

Same assay, conditions: in the presence (but not absence) of laminin-1, four days culture
B7 was tested, and the “proliferation and colony formation of fetal pancreas cells” value (“proliferation and colony formation” below) was “stimulated fetal pancreas cells to proliferate and form colonies”. With B2 the “proliferation and colony formation” value was “stimulated fetal pancreas cells to proliferate and form colonies”. B3 was tested, and the “proliferation and colony formation” value was “did not promote colony formation”. In the case of B4, the “proliferation and colony formation” value is reported as “did not promote colony formation”. With B1 the “proliferation and colony formation” value was “stimulated fetal pancreas cells to proliferate and form colonies”.
